Assay results: the supplement of paper PMC10567573

B1: TSPAN10 (parent)
chain: EGCGPPLRRWLRANLAASGGYAIA

Variants of: B1
Test: protein stability index of a GFP-peptide fusion (GPS, HEK-293T) (PSI 1-6); higher = more stable
Conditions: c terminus: a fixed tail appended
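Note: lentivirally expressed fusions sorted by FACS into six bins by GFP to DsRed ratio, PSI derived from sequencing read proportions per bin multiplied by bin number.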

Variant	protein stability index
EGCGPPLRRWRRANLAASGGYAIA [L11R]	2.56
EGCGPPLRRWGRANLAASGGYAIA [L11G]	1.74
EGCGPPLRRWTRANLAASGGYAIA [L11T]	2.89
EGCGPPLRRWIRANLAASGGYAIA [L11I]	1.91
EGCGPPLRRWHRANLAASGGYAIA [L11H]	2.94
EGCGPPLRRWKRANLAASGGYAIA [L11K]	2.43
EGCGPPLRRWYRANLAASGGYAIA [L11Y]	1.9
EGCGPPLRRWSRANLAASGGYAIA [L11S]	2.61
EGCGPPLRRWVRANLAASGGYAIA [L11V]	1.82
EGCGPPLRRWPRANLAASGGYAIA [L11P]	2.65
EGCGPPLRRWDRANLAASGGYAIA [L11D]	2.12
EGCGPPLRRWFRANLAASGGYAIA [L11F]	1.03
EGCGPPLRRWMRANLAASGGYAIA [L11M]	2.51
EGCGPPLRRWQRANLAASGGYAIA [L11Q]	3.13
EGCGPPLRRWARANLAASGGYAIA [L11A]	2.55
EGCGPPLRRWCRANLAASGGYAIA [L11C]	1.68
EGCGPPLRRWWRANLAASGGYAIA [L11W]	1.5
EGCGPPLRRWERANLAASGGYAIA [L11E]	2.57
EVCGPPLRRWLRANLAASGGYAIA [G2V]	1.53
EWCGPPLRRWLRANLAASGGYAIA [G2W]	2
EYCGPPLRRWLRANLAASGGYAIA [G2Y]	1.69
EGCGPPLMRWLRANLAASGGYAIA [R8M]	2.16
EGCGPPLVRWLRANLAASGGYAIA [R8V]	2.7
EGCGPPLWRWLRANLAASGGYAIA [R8W]	1.31

Variant	protein stability index
EGCGPPLERWLRANLAASGGYAIA [R8E]	1.26
EGCGPPLTRWLRANLAASGGYAIA [R8T]	1.71
EGCGPPLCRWLRANLAASGGYAIA [R8C]	1.53
EGCGPPLKRWLRANLAASGGYAIA [R8K]	1.85
EGCGPPLFRWLRANLAASGGYAIA [R8F]	1.3
EGCGPPLGRWLRANLAASGGYAIA [R8G]	1.71
EGCGPPLLRWLRANLAASGGYAIA [R8L]	1.37
EGCGPPLSRWLRANLAASGGYAIA [R8S]	1.7
EGCGPPLIRWLRANLAASGGYAIA [R8I]	2.1
EGCGPPLDRWLRANLAASGGYAIA [R8D]	1.47
EGCGPPLPRWLRANLAASGGYAIA [R8P]	1.46
EGCGPPLQRWLRANLAASGGYAIA [R8Q]	2.05
EGCGPPLARWLRANLAASGGYAIA [R8A]	1.04
EGCGPPLNRWLRANLAASGGYAIA [R8N]	1.83
EGCGPPLHRWLRANLAASGGYAIA [R8H]	1.58
EGCGPPLRRWLRGNLAASGGYAIA [A13G]	3.35
EGCGPPLRRWLRFNLAASGGYAIA [A13F]	2.46
EGCGPPLRRWLRHNLAASGGYAIA [A13H]	2.26
EGCGPPLRRWLRCNLAASGGYAIA [A13C]	2.93
EGCGPPLRRWLRENLAASGGYAIA [A13E]	3.18
EGCGPPLRRWLRDNLAASGGYAIA [A13D]	1.83
EGCGPPLRRWLRINLAASGGYAIA [A13I]	1.67
EGCGFPLRRWLRANLAASGGYAIA [P5F]	2.73
EGCGDPLRRWLRANLAASGGYAIA [P5D]	2.38

Variant	protein stability index
EGCGMPLRRWLRANLAASGGYAIA [P5M]	1.65
EGCGKPLRRWLRANLAASGGYAIA [P5K]	2.03
EGCGVPLRRWLRANLAASGGYAIA [P5V]	2.15
EGCGYPLRRWLRANLAASGGYAIA [P5Y]	1.6
EGCGGPLRRWLRANLAASGGYAIA [P5G]	2.08
EGCGQPLRRWLRANLAASGGYAIA [P5Q]	1.79
EGCGCPLRRWLRANLAASGGYAIA [P5C]	3.5
EGCGNPLRRWLRANLAASGGYAIA [P5N]	2.02
EGCGEPLRRWLRANLAASGGYAIA [P5E]	3.75
EGCGTPLRRWLRANLAASGGYAIA [P5T]	2.05
EGCGSPLRRWLRANLAASGGYAIA [P5S]	1.44
EGCGHPLRRWLRANLAASGGYAIA [P5H]	1.7
EGCGAPLRRWLRANLAASGGYAIA [P5A]	2.08
EGCGRPLRRWLRANLAASGGYAIA [P5R]	2.48
EGAGPPLRRWLRANLAASGGYAIA [C3A]	2.3
EGTGPPLRRWLRANLAASGGYAIA [C3T]	1.7
EGEGPPLRRWLRANLAASGGYAIA [C3E]	2.82
EGRGPPLRRWLRANLAASGGYAIA [C3R]	1.4
EGHGPPLRRWLRANLAASGGYAIA [C3H]	2.62
EGDGPPLRRWLRANLAASGGYAIA [C3D]	2.37
EGIGPPLRRWLRANLAASGGYAIA [C3I]	2.83
EGLGPPLRRWLRANLAASGGYAIA [C3L]	2.65
EGQGPPLRRWLRANLAASGGYAIA [C3Q]	3.09
EGWGPPLRRWLRANLAASGGYAIA [C3W]	1.72

Variant	protein stability index
EGKGPPLRRWLRANLAASGGYAIA [C3K]	1.93
EGMGPPLRRWLRANLAASGGYAIA [C3M]	1.78
EGGGPPLRRWLRANLAASGGYAIA [C3G]	2.11
EGSGPPLRRWLRANLAASGGYAIA [C3S]	2.45
EGFGPPLRRWLRANLAASGGYAIA [C3F]	1.61
EGVGPPLRRWLRANLAASGGYAIA [C3V]	1.76
EGPGPPLRRWLRANLAASGGYAIA [C3P]	2.25
EGCGPPLRDWLRANLAASGGYAIA [R9D]	1.9
EGCGPPLRIWLRANLAASGGYAIA [R9I]	2.9
EGCGPPLRWWLRANLAASGGYAIA [R9W]	1
EGCGPPLRYWLRANLAASGGYAIA [R9Y]	2.29
EGCGPPLRAWLRANLAASGGYAIA [R9A]	1.55
EGCGPPLRLWLRANLAASGGYAIA [R9L]	1.05
EGCGPPLRQWLRANLAASGGYAIA [R9Q]	1.81
EGCGPPLRNWLRANLAASGGYAIA [R9N]	2.72
EGCGPPLRGWLRANLAASGGYAIA [R9G]	1.25
EGCGPPLREWLRANLAASGGYAIA [R9E]	2.28
EGCGPPLRSWLRANLAASGGYAIA [R9S]	2.33
EGCGPPLRMWLRANLAASGGYAIA [R9M]	1.65
EGCGPPLRTWLRANLAASGGYAIA [R9T]	1.7
EGCGPPLRCWLRANLAASGGYAIA [R9C]	1.29
EGCGPPLRPWLRANLAASGGYAIA [R9P]	2.54
